Experimental data from publication PMC6016244, “Escherichia coli ZipA Organizes FtsZ Polymers into Dynamic Ring-Like Protofilament Structures” (mBio, 2018).
Blank lines part the entries; values can stand above or below the binder they belong to.

Tests used:
[1] = target: the molecule itself; test: lipid monolayer assay with negative stain electron microscopy; sZipA (1-2 µM) held by its His6 tag on E. coli polar lipid (or DOPC) monolayers with 0.5 to 10% DGS-NTA; FtsZ 0.5 to 5 µM added, then 2 mM GTP or 0.5 mM GMPcPP; Z-buffer (50 mM Tris-HCl pH 7.5, 300 mM KCl, 5 mM MgCl2); control: FtsZ on NTA monolayers without sZipA
[2] = target: T1, Alexa Fluor 488-labeled FtsZ (E. coli, UniProt P0A9A6 1-383, Alexa Fluor 488 (succinimidyl ester probe, 1:10 molar ratio); labelled residues not stated); test: self-organization assay on supported lipid bilayers, confocal and STED fluorescence microscopy; Alexa Fluor 647-labeled sZipA attached to supported bilayers of E. coli polar lipids with 0.5% NTA lipids (low density); 1 µM FtsZ-Alexa Fluor 488 added, then 2 mM GTP or 0.5 mM GMPcPP; Z-buffer; conditions: both partners purified
T1 construct: Cell division protein FtsZ, Escherichia coli; wild type; Same protein as m1, with a fluorescent label; used on supported lipid bilayers; also called FtsZ-Alexa Fluor 488; FtsZ Alexa Fluor 488
T1 sequence (looked up): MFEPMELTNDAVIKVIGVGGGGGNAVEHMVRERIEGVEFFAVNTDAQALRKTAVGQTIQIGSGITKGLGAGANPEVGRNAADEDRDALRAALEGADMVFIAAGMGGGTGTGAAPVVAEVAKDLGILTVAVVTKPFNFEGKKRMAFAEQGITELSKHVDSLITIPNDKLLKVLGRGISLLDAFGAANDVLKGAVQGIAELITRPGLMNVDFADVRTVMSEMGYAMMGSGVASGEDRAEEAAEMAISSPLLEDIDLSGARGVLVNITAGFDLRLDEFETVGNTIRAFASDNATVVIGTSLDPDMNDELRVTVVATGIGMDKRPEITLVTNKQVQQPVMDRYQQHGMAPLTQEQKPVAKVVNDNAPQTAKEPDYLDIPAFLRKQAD

B1: E. coli FtsZ (natural protein, UniProt P0A9A6 1-383, looked up)
chain: T1 sequence (looked up)
notes: Cell division protein FtsZ, Escherichia coli; wild type; Unlabelled FtsZ of the lipid monolayer / electron microscopy assays; Polymerised with GTP or GMPcPP; source: plasmid pMFV56 (pET28a-FtsZ)
binding result [1]: binds

binding result [2]: binds
B2: Alexa Fluor 647-labeled sZipA (domain or fragment)
chain: not shown
modifications: Alexa Fluor 647 (succinimidyl ester probe, 1:10 molar ratio); labelled residues not stated
notes: Cell division protein ZipA, Escherichia coli; first 25 amino acids replaced by a His6 tag; Same construct as m2, with a fluorescent label; attached to supported lipid bilayers that contain NTA lipids; also called fluorescent sZipA; not shown: His6, N-terminal, kept
